Data on 37 molecules can be found in paper PMC4072508, “Genome-Wide Prediction and Validation of Peptides That Bind Human Prosurvival Bcl-2 Proteins” (PLoS Computational Biology, 2014).

One test deals with Bcl-xL, Q07817. Kind of test: peptide SPOT array, c-Myc-tagged receptor at 1 uM or 100 nM, anti-c-Myc-Cy3.
In a further test the target is T1, Mcl-1, Q07820.
T1 chain: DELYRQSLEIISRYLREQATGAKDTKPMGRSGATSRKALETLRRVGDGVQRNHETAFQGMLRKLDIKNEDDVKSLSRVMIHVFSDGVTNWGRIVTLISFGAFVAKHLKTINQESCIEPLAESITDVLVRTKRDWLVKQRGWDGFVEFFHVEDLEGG
The test is described as above.

Chain of Bcl-xL, Q07817 (Q07817 1-209): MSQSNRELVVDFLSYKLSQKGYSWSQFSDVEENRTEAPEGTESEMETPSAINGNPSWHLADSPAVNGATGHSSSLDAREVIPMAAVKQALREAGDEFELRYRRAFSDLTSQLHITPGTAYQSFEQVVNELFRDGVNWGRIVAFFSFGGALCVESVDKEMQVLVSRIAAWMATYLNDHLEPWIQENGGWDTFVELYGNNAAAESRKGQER

B1: CLTC (peptide)
chain: FRLAQMCGLHIVVHLDELEELINYYQ
B1: the SPOT signal as a fraction of Bim BH3's signal on the same receptor and array in the test with Bcl-xL, Q07817 was 0.02; with Mcl-1, Q07820 it was 0.02.

B2: KIF13A (peptide)
chain: NKSLTTLGLVISSLLDQAAGKGKSKF
As for B2, the SPOT signal as a fraction of Bim BH3's signal on the same receptor and array came out at 0.26 in the test with Bcl-xL, Q07817 and 0.18 in the test with Mcl-1, Q07820.

B3: PCM1 (peptide)
chain: DSLAKFAGRKDKDCGEDLLVEISEVL
On to B3, for which the SPOT signal as a fraction of Bim BH3's signal on the same receptor and array amounted to 0.01 with Bcl-xL, Q07817 and 0.01 with Mcl-1, Q07820.

B4: RYR1 (peptide)
chain: DLSAVTLSRELQAMLEQLAENYHNTW
Take B4: the SPOT signal as a fraction of Bim BH3's signal on the same receptor and array in the test with Bcl-xL, Q07817 came out at 0.02; with Mcl-1, Q07820, 0.02.

B5: ATAD2 (peptide)
chain: SQGDKRVAFFDRKGADCLSKWVGESE
In the case of B5, the SPOT signal as a fraction of Bim BH3's signal on the same receptor and array in the test with Bcl-xL, Q07817 is 0.02; in the test with Mcl-1, Q07820, 0.02.

B6: CCT3 (peptide)
chain: DVGTGAGLLEIKKIGDEYFTFITDCK
As for B6, the SPOT signal as a fraction of Bim BH3's signal on the same receptor and array with Bcl-xL, Q07817 was 0.01; with Mcl-1, Q07820, 0.01.

B7: HIRA (peptide)
chain: GLTWDPVGKYIASQADDRSLKVWRTL
Consider B7, for which the SPOT signal as a fraction of Bim BH3's signal on the same receptor and array with Bcl-xL, Q07817 worked out at 0.81; with Mcl-1, Q07820 it was 0.94.

B8: SLC1A2 (peptide)
chain: IGFFIAFGIADGKMGDQAKLMVDFFN
Regarding B8, the SPOT signal as a fraction of Bim BH3's signal on the same receptor and array was found to be 0.02 with Bcl-xL, Q07817 and 0.01 in the test with Mcl-1, Q07820.

B9: RRM1 (peptide)
chain: NKRHRPIGIGDQGLADAFILMRYPFE
In the case of B9, the SPOT signal as a fraction of Bim BH3's signal on the same receptor and array was determined as 0.02 with Bcl-xL, Q07817 and 0.02 with Mcl-1, Q07820.

B10: OBSCN (peptide)
chain: RCELQICGLAMADAGEYLCVCGQERT
As to B10, the SPOT signal as a fraction of Bim BH3's signal on the same receptor and array with Bcl-xL, Q07817 came to 0.01; with Mcl-1, Q07820, 0.01.

B11: PRKDC (peptide)
chain: SHALICISHWILGIGDRHLNNFMVAM
B11: the SPOT signal as a fraction of Bim BH3's signal on the same receptor and array in the test with Bcl-xL, Q07817 was determined as 0.02; with Mcl-1, Q07820 it was 0.02.

B12: STAG1 (peptide)
chain: AICIEEIGVWMKMYLDAFLNDSYLKY
As to B12, the SPOT signal as a fraction of Bim BH3's signal on the same receptor and array was found to be 0.02 with Bcl-xL, Q07817 and 0.03 with Mcl-1, Q07820.

B13: CAND1 (peptide)
chain: ERAISCMGQIICNLLDNLGSDLPNTL
Consider B13, for which the SPOT signal as a fraction of Bim BH3's signal on the same receptor and array amounted to 0.02 with Bcl-xL, Q07817 and 0.01 in the test with Mcl-1, Q07820.

B14: CAD (peptide)
chain: LRVSTKIGSCMKSVGEVMGIGRSFEE
On to B14, for which the SPOT signal as a fraction of Bim BH3's signal on the same receptor and array was 0.05 in the test with Bcl-xL, Q07817 and 0.04 with Mcl-1, Q07820.

B15: ATAD2 (peptide)
chain: SQGDKRVAFFMRKGADCLSKWVGESE
Take B15: the SPOT signal as a fraction of Bim BH3's signal on the same receptor and array with Bcl-xL, Q07817 is 0.13; in the test with Mcl-1, Q07820 it was 0.06.

B16: POLE (peptide)
chain: CILNSFYGYVMRKGARWYSMEMAGIV
As for B16, the SPOT signal as a fraction of Bim BH3's signal on the same receptor and array with Bcl-xL, Q07817 worked out at 0.18; with Mcl-1, Q07820, 0.12.

B17: ADCY10 (peptide)
chain: EKVLIFGGDIDKFAGDALLALWRVER
For the molecule B17, the SPOT signal as a fraction of Bim BH3's signal on the same receptor and array with Bcl-xL, Q07817 was 0.02; in the test with Mcl-1, Q07820, 0.02.

B18: ITPR3 (peptide)
chain: KKCQDMIMTELTNAGDDVVVFYNDKA
Regarding B18, the SPOT signal as a fraction of Bim BH3's signal on the same receptor and array came to 0.02 with Bcl-xL, Q07817 and 0.01 in the test with Mcl-1, Q07820.

B19: NT5C2 (peptide)
chain: CDLLGAKGKDDLYIGDHIFGDILKSK
Regarding B19, the SPOT signal as a fraction of Bim BH3's signal on the same receptor and array in the test with Bcl-xL, Q07817 was determined as 0.02; with Mcl-1, Q07820 it was 0.04.

B20: DDX7 (peptide)
chain: GLFSATSGVDDKYVADTFGQEVRPVS
In the case of B20, the SPOT signal as a fraction of Bim BH3's signal on the same receptor and array with Bcl-xL, Q07817 turned out to be 0.02; with Mcl-1, Q07820, 0.01.

B21: SLC40A1 (peptide)
chain: AKFLLYLGHSDSTWGDRMWHFAVSVF
Consider B21, for which the SPOT signal as a fraction of Bim BH3's signal on the same receptor and array amounted to 0.03 with Bcl-xL, Q07817 and 0.03 in the test with Mcl-1, Q07820.

B22: SCAP (peptide)
chain: IQQDLGCGASLGVISDNLLVTGGQGC
On to B22, for which the SPOT signal as a fraction of Bim BH3's signal on the same receptor and array was determined as 0.02 with Bcl-xL, Q07817 and 0.01 with Mcl-1, Q07820.

B23: CCT3 (peptide)
chain: DVGTGAGLLEIKKILDEYFTFITDCK
Consider B23, for which the SPOT signal as a fraction of Bim BH3's signal on the same receptor and array in the test with Bcl-xL, Q07817 turned out to be 0.02; in the test with Mcl-1, Q07820, 0.02.

B24: EEF2 (peptide)
chain: GSGLHGWAFTLKQFLEMYVAKFAAKG
In the case of B24, the SPOT signal as a fraction of Bim BH3's signal on the same receptor and array in the test with Bcl-xL, Q07817 was determined as 0.25; with Mcl-1, Q07820, 0.12.

B25: MLLT4 (peptide)
chain: KNIAGALAFWMANASELLNFIKQDRD
Regarding B25, the SPOT signal as a fraction of Bim BH3's signal on the same receptor and array amounted to 0.03 with Bcl-xL, Q07817 and 0.03 with Mcl-1, Q07820.

B26: PSMB1 (peptide)
chain: SPYVFNGGTIDAIAGEDFAIVASDTR
For B26, the SPOT signal as a fraction of Bim BH3's signal on the same receptor and array with Bcl-xL, Q07817 amounted to 0.01; with Mcl-1, Q07820, 0.01.

B27: HDAC3 (peptide)
chain: VDFYQPTCIVLQCGLDSLGCDRLGCF
With B27, the SPOT signal as a fraction of Bim BH3's signal on the same receptor and array in the test with Bcl-xL, Q07817 was found to be 0.01; with Mcl-1, Q07820, 0.01.

B28: SOS1 (peptide)
chain: QLSKPGAALYDQSIGEGFKEAVQYVL
As to B28, the SPOT signal as a fraction of Bim BH3's signal on the same receptor and array with Bcl-xL, Q07817 was determined as 0.02; in the test with Mcl-1, Q07820 it was 0.02.

B29: TRO (peptide)
chain: SALETQVAAAVQALADDYLAQLSLEP
Consider B29, for which the SPOT signal as a fraction of Bim BH3's signal on the same receptor and array was found to be 0.01 with Bcl-xL, Q07817 and 0.01 in the test with Mcl-1, Q07820.

B30: DBC1 (peptide)
chain: ISDVQVFGYSLRFNLDLLRSAVQQVN
Turning to B30, the SPOT signal as a fraction of Bim BH3's signal on the same receptor and array with Bcl-xL, Q07817 came to 0.03; with Mcl-1, Q07820 it was 0.02.

B31: MAPKAPK2 (peptide)
chain: AFTEREASEIMKSIGEAIQYLHSINI
In the case of B31, the SPOT signal as a fraction of Bim BH3's signal on the same receptor and array stood at 0.02 in the test with Bcl-xL, Q07817 and 0.02 with Mcl-1, Q07820.

B32: CRTC1 (peptide)
chain: PSLSKELTSSLAGVGDVSFDSDSQFP
In the case of B32, the SPOT signal as a fraction of Bim BH3's signal on the same receptor and array with Bcl-xL, Q07817 was 0.01; with Mcl-1, Q07820, 0.01.

B33: TIGD7_3eA (peptide)
chain: VLSRIEAGRSDKSVADEFGISKSTFY
As to B33, the SPOT signal as a fraction of Bim BH3's signal on the same receptor and array in the test with Bcl-xL, Q07817 is 0.02; with Mcl-1, Q07820 it was 0.02.

B34: CDC42BPG (peptide)
chain: ELQAPATVQSLGLLGDRLCVGAAGGF
Consider B34, for which the SPOT signal as a fraction of Bim BH3's signal on the same receptor and array with Bcl-xL, Q07817 came to 0.01; with Mcl-1, Q07820 it was 0.01.

B35: FLAD1 (peptide)
chain: LSPGRSVTAGIIIVLDEILKGHTQDT
As for B35, the SPOT signal as a fraction of Bim BH3's signal on the same receptor and array was found to be 0.01 with Bcl-xL, Q07817 and 0.01 with Mcl-1, Q07820.

B36: CPS1 (peptide)
chain: HGTSSRIGSSMKSVLEVMAIGRTFEE
On to B36, for which the SPOT signal as a fraction of Bim BH3's signal on the same receptor and array in the test with Bcl-xL, Q07817 was 0.02; with Mcl-1, Q07820 it was 0.02.

B37: CCT3 (peptide)
chain: DVGTGAGLLEDKKIGDEYFTFITDCK
Regarding B37, the SPOT signal as a fraction of Bim BH3's signal on the same receptor and array amounted to 0.01 in the test with Bcl-xL, Q07817 and 0.01 in the test with Mcl-1, Q07820.
